# Positions count from the first letter of the chain named.
# B1: Antibody A (antibody, human IgG1, kappa, L234A L235A)
# heavy: not shown
# light: DIQMTQSPSSLSASVGDRVTITCRASQDINNYLAWFQQKPGKAPKSLIYTASSLHSGVPSKFSGSGSGTDFTLTISSLQPEDFATYYCQQYVSYPYTFGQGTKLEIKRTVAAPSVFIFPPSDEQLKSGTASVVCLLNNFYPREAKVQWKVDNALQSGNSQESVTEQDSKDSTYSLSSTLTLSKADYEKHKVYACEVTHQGLSSPVTKSFNRGEC
# B2: Antibody A10 (antibody, human IgG1, kappa, L234A L235A)
# heavy: not shown
# light: B1 light
# B3: Antibody C (antibody, human IgG1, kappa, L234A L235A, V domains shown)
# VH: EVQLVESGGGLVQPGGSLRLSCAASGFTFSSYDMHWVRQATGKGLEWVSVIGIAGDTYYPGSVKGRFTISRENAKNSLYLQMNSLRVGDTAVYYCARGGSWDDAFDIWGQGTMVTVSS
# VL: DIQMTQSPSSLSASIGDKVTITCRASQDINNYLAWFQQKPGKAPKSLIYTASSLQSGVPSKFSGSGSGTDFTLTISSLQPEDFATYYCQQYVSYPYTFGQGTKLEIKR
# B4: Antibody B (antibody, human IgG1, kappa, L234A L235A, V domains shown)
# VH: QVQLVQSGAEVKKPGASVKVSCKASGYTFTGNYMHWVRQAPGQGLEWMGWINPNSGGTNYAQKFQGRVTMTRDTSISTAYMELSRLRSDDTAVYYCVSGSGWYENYYYYGMDVWGQGTTVTVSS
# VL: DIQMTQSPSSVSASVGDRVTITCRASQGISSWLAWYQQKPGKAPKLLIYAESSLQSGVPSRFSGSGSGTDFTLTISSLQPEDFATYYCQQANSFPLTFGGGTKVEIKR
# B5: Antibody D (antibody, human IgG1, kappa, L234A L235A, V domains shown)
# VH: B3 VH with Y32F, A40P, V50T, Y59F, V87A, S100N, F105L
# VL: B3 VL with I15V, K18R, V92N, S93T
# B6: Antibody E (antibody, human IgG1, kappa, L234A L235A)
# heavy: not shown
# light: DIVMTQSPLSLPVTPGEPASISCKSSQSLLYSNGYNYLDWYLQRPGQSPQLLIYLGSNRASGVPDRFSGSGSGTDFTLKISRVEAEDVGVFYCMQALQTPLTFGGGTKVEIKRTVAAPSVFIFPPSDEQLKSGTASVVCLLNNFYPREAKVQWKVDNALQSGNSQESVTEQDSKDSTYSLSSTLTLSKADYEKHKVYACEVTHQGLSSPVTKSFNRGEC
# B7: Antibody E22 (antibody, human IgG1, kappa, L234A L235A, V domains shown)
# VH: QVQLQESGPGLVKPSETLSLTCTVSGGSIRDYYWSWIRQPPGKGLEWIGFIYYNGRTFYQSSLKSRVTISLDTSKNQFSLKMTSVTAADTAVYYCARVRAYSGIGLDGTDVWGQGTTVTVSS
# VL: DIVMTQSPLSLPVTPGEPASISCRSSQSLLYSTGYTYLDWYLQRPGQSPQLLIYGGSSRASGVPDRFSGSGSGTDFTLKISRVEAEDVGVFYCGQALQTPLTFGQGTKVEIKR
# B8: Anti-SIRPα antibody KWAR23 (antibody, V domains shown)
# VH: EVQLQQSGAELVKPGASVKLSCTASGFNIKDYYIHWVQQRTEQGLEWIGRIDPEDGETKYAPKFQDKATITADTSSNTAYLHLSSLTSEDTAVYYCARWGAYWGQGTLVTVSS
# VL: QIVLTQSPAIMSASPGEKVTLTCSASSSVSSSYLYWYQQKPGSSPKLWIYSTSNLASGVPARFSGSGSGTSYSLTISSMEAEDAASYFCHQWSSYPRTFGAGTKLELK
# What was measured:
# [1] = biological target: T1, full-length human SIRPβ1 D→H on Expi-CHO cells (human, UniProt O00241 30-398); experiment: flow cytometry, Expi-CHO cells expressing full-length human SIRPβ1 D→H
# T1 construct: the entry already carries the change (PDDV to PDHV)
# Protocol: (§1) These cells are blocked with donkey IgG and incubated on ice with increasing concentrations of antibodies for 60 minutes, washed and stained with AF647-conjugated donkey F(ab′)₂ anti-human IgG antibodies. Stained cells are washed, fixed, and analyzed by flow cytometry. Median fluorescent intensity is determined and used as a measure of antibody binding.
# [2] = biological target: T2, full-length human SIRPβL H→D on Expi-CHO cells (human, UniProt Q5TFQ8 30-398); experiment: flow cytometry, Expi-CHO cells
# T2 construct: the entry already carries the change (PDHV to PDDV); also called βL WT H→D
# Protocol: as §1, with “Expi-CHO parental cells are transduced with lentiviruses containing either full-length wild-type human SIRPβL (Q5TFQ8) or full-length human SIRPβL with a single amino acid point mutation (Table 62) and sorted to achieve matching expression levels. These” for “These”
# A single amino acid substitution (H→D) introduced within the loop region maintained, strengthened, or facilitated antibody binding to these cells (FIG. 34B, Table 63).
# [3] = biological target: ED-tagged human SIRPα V1 receptor on Jurkat signaling reporter cells (human, UniProt P78324 31-504); experiment: cell-based or functional assay
# [4] = biological target: ED-tagged human SIRPα V2 receptor on Jurkat signaling reporter cells (human, UniProt P78324 31-504); experiment: cell-based or functional assay
# [5] = biological target: T3, full-length human SIRPγ N→D on Expi-CHO cells (human, UniProt Q9P1W8 29-387); experiment: flow cytometry, Expi-CHO cells
# T3 construct: the entry already carries the change (PENV to PEDV)
# Protocol: as §1, with “Expi-CHO parental cells are transduced with lentiviruses containing either full-length wild-type human SIRPγ ([…]) or full-length human SIRPγ with amino acid point mutations (Table 64) and sorted to achieve matching expression levels. These” for “These”
# [6] = biological target: T4, full-length human SIRPαV2 (CAA71403.1) on cells (human, UniProt P78324 31-504); experiment: flow cytometry, CD14+ monocytes V2V2
# T4 construct: one molecule for CHO-K1 and Expi-CHO transfectants (CAA71403.1) and for endogenous V2 on THP-1 cells and on CD14+ monocytes of V2/V2 donors; also called CHO-hSIRPαV2; αV2 WT
# Protocol: (§2) Antibody binding to primary human cells expressing SIRPα is evaluated by flow cytometry. Human peripheral blood mononuclear cells (PBMCs) from donors genotyped as homozygous for the SIRPα V1 allele, V2 allele, or heterozygous for both alleles are blocked with donkey IgG and incubated on ice with increasing concentrations of antibody for 60 minutes, washed and stained with AF647-conjugated donkey F(ab′)₂ anti-human IgG secondary reagent. […] Cells are washed, fixed, and analyzed by flow cytometry. Median fluorescent intensity of the CD14+ population was determined and used as a measure of antibody binding.
# [7] = biological target: T5, full-length human SIRPαV1 (NP_542970.1) on cells (human, UniProt P78324 31-504); experiment: flow cytometry, CD14+ monocytes V1V1
# T5 construct: one molecule for CHO-K1 and Expi-CHO transfectants (NP_542970.1) and for endogenous V1 on U-937 cells and on CD14+ monocytes of V1/V1 donors; also called CHO-hSIRPαV1; αV1 WT
# Protocol: as §2
# [8] = biological target: T6, full-length human SIRPαV1 N→E on Expi-CHO cells (human, UniProt P78324 31-504); experiment: flow cytometry, Expi-CHO cells
# T6 construct: the entry already carries the change (TKRN to TKRE)
# Protocol: as §1, with “Expi-CHO parental cells are transduced with lentiviruses containing either full-length wild-type human SIRPαV1 allele (NP_542970.1) or full-length human SIRPαV1 with amino acid point mutations (Table 56) and sorted to achieve matching expression levels. These” for “These”
# [9] = biological target: T7, full-length human SIRPαV1 D→E on Expi-CHO cells (human, UniProt P78324 31-504); experiment: flow cytometry, Expi-CHO cells
# T7 construct: the entry already carries the change (PDDV to PEDV)
# Protocol: as §1, with “Expi-CHO parental cells are transduced with lentiviruses containing either full-length wild-type human SIRPαV1 allele (NP_542970.1) or full-length human SIRPαV1 with amino acid point mutations (Table 56) and sorted to achieve matching expression levels. These” for “These”
# [10] = biological target: T5, full-length human SIRPαV1 (NP_542970.1) …; experiment: flow cytometry, Expi-CHO cells
# Protocol: as §1, with “Expi-CHO parental cells are transduced with lentiviruses containing either full-length wild-type human SIRPαV1 allele (NP_542970.1) or full-length human SIRPαV1 with amino acid point mutations (Table 56) and sorted to achieve matching expression levels. These” for “These”
# [11] = biological target: T5, full-length human SIRPαV1 (NP_542970.1) …; experiment: flow cytometry, competition with CD47 tetramer, monocytes V1V1
# Protocol: Cells are washed, fixed, and analyzed by flow cytometry. Median fluorescent intensity of CD14+gated population is determined and used as a measure of CD47 binding.
# [12] = biological target: T8, full-length human SIRPαV2 E→N on Expi-CHO cells (human, UniProt P78324 31-504); experiment: flow cytometry, Expi-CHO cells
# T8 construct: the entry already carries the change (TKRE to TKRN)
# Protocol: as §1, with “Expi-CHO parental cells are transduced with lentiviruses containing either full-length wild-type human SIRPαV2 allele (CAA71403.1) or full-length human SIRPαV2 with amino acid point mutations (Table 58) and sorted to achieve matching expression levels. These” for “These”
# [13] = biological target: T9, full-length human SIRPαV2 D→E on Expi-CHO cells (human, UniProt P78324 31-504); experiment: flow cytometry, Expi-CHO cells
# T9 construct: the entry already carries the change (SPDT to SPET)
# Protocol: as §1, with “Expi-CHO parental cells are transduced with lentiviruses containing either full-length wild-type human SIRPαV2 allele (CAA71403.1) or full-length human SIRPαV2 with amino acid point mutations (Table 58) and sorted to achieve matching expression levels. These” for “These”
# [14] = biological target: T4, full-length human SIRPαV2 (CAA71403.1) …; experiment: flow cytometry, Expi-CHO cells
# Protocol: as §1, with “Expi-CHO parental cells are transduced with lentiviruses containing either full-length wild-type human SIRPαV2 allele (CAA71403.1) or full-length human SIRPαV2 with amino acid point mutations (Table 58) and sorted to achieve matching expression levels. These” for “These”
Binder,binding result [1],EC50 [2] [nM],Blockade of Cellular CD47-Mediated SIRPα Signaling; IC50 [3] [nM],Blockade of Cellular CD47-Mediated SIRPα Signaling; IC50 [4] [nM],EC50 [5] [nM],EC50 [6] [nM],EC50 [7] [nM],EC50 [8] [nM],EC50 [9] [nM],EC50 [10] [nM],IC50 [11] [nM],EC50 [12] [nM],EC50 [13] [nM],EC50 [14] [nM],Blockade of Cellular CD47-Mediated SIRPα Signaling; IC50 (* Inhibition plateaus at <100%) [4] [nM]
B1,no binding (tested: about 67 nM),0.5,0.04,0.04,0.4,,,,,,,,,,
B2,no binding (tested: about 67 nM),0.6,0.04,0.04,0.5,,,,,,,,,,
B3,no binding (tested: about 67 nM),0.3,0.04,0.03,,0.3,0.6,0.3,0.2,0.3,0.04,0.2,0.2,0.2,
B4,,,0.76,,4.8,21.8,26.6,4.5,3.7,3.8,2.55,4.1,3.7,3.6,
B5,no binding (tested: about 67 nM),0.2,0.04,0.04,0.3,0.2,0.3,0.3,0.2,0.3,0.03,0.2,0.6,0.2,
B6,no binding (tested: about 67 nM),0.5,0.04,,,0.7,0.4,0.5,0.4,0.5,0.09,0.3,0.3,0.3,0.04
B7,no binding (tested: about 67 nM),0.7,0.07,,,0.4,0.8,0.9,0.7,0.8,0.25,0.4,0.4,0.4,0.07
B8,,0.5,,,0.3,0.1,0.2,0.5,0.2,0.3,0.07,0.2,0.2,0.2,

# — patent US20230012273A1 (Boehringer Ingelheim, published 2023)
